# How the values were obtained:
# [1] = target: cynomolgus monkey PD1 antigen (cynomolgus monkey) (UniProt B0LAJ3); assay: ELISA, coated cynomolgus PD1, 0.2 µg/ml
# [2] = target: human CD64 receptor (hFcγRI) (human) (UniProt P12314); assay: ELISA, coated hCD64, 0.5 µg/ml
# hCD32aR (human) [3] = target: hCD32aR (human) (UniProt P12318); assay: ELISA, coated hCD32aR, IgG aggregated with anti-CK F(ab')2-HRP
# [4] = target: human PD1 antigen (recombinant protein) (human) (UniProt Q15116); assay: ELISA, coated human PD1
# hCD16aV (human) [5] = target: hCD16aV (human) (UniProt P08637); assay: ELISA, coated hCD16aV, 0.5 µg/ml
# hCD32aH (human) [6] = target: hCD32aH (human) (UniProt P12318); assay: ELISA, coated hCD32aH, IgG aggregated with anti-CK F(ab')2-HRP
# hCD32aH (human) [7] = target: hCD32aH (human) (UniProt P12318); assay: ELISA, coated hCD32aH, 0.5 µg/ml
# hCD32aR (human) [8] = target: hCD32aR (human) (UniProt P12318); assay: ELISA, coated hCD32aR, 0.5 µg/ml
# [9] = target: cynomolgus monkey PD1 antigen (cynomolgus monkey) (UniProt B0LAJ3); assay: ELISA, coated cynomolgus PD1
# [10] = target: murine PD1 antigen (murine) (UniProt Q02242); assay: ELISA, coated murine PD1
# hCD16aV (human) [11] = target: hCD16aV (human) (UniProt P08637); assay: ELISA, coated hCD16aV, IgG aggregated with anti-CK F(ab')2-HRP
# [12] = target: FcRn receptor (recombinant protein human FcRnα and β2-microglobulin) (human) (UniProt P55899); assay: ELISA at pH 6, coated FcRn, 10 µg/ml
# hCD32b (human) [13] = target: hCD32b (human) (UniProt P31994); assay: ELISA, coated hCD32b, IgG aggregated with anti-CK F(ab')2-HRP
# [14] = target: FcRn receptor (recombinant protein human FcRnα and β2-microglobulin) (human) (UniProt P55899); assay: ELISA at pH 6, coated FcRn
# [15] = target: human CD64 receptor (hFcγRI) (human) (UniProt P12314); assay: ELISA, coated hCD64
# hCD32b (human) [16] = target: hCD32b (human) (UniProt P31994); assay: ELISA, coated hCD32b, 0.5 µg/ml
# [17] = target: human PD1 antigen (recombinant protein) (human) (UniProt Q15116); assay: ELISA, coated human PD1, 0.2 µg/ml
# Chain of human PD1 antigen (recombinant protein) (human) (Q15116 25-167 limits assumed): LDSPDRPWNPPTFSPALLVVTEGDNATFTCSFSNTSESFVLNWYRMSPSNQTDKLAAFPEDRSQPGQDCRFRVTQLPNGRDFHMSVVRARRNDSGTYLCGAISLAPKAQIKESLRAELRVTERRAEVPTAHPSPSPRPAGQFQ
# Chain of hCD32b (human) (P31994 46-217): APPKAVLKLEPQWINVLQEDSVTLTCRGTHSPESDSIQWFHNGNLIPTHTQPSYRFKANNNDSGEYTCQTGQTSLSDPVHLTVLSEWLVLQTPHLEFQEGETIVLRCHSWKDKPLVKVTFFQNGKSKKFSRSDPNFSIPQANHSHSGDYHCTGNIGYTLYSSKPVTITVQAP
# Chain of cynomolgus monkey PD1 antigen (cynomolgus monkey) (B0LAJ3 entry or part of it limits assumed, form in doubt): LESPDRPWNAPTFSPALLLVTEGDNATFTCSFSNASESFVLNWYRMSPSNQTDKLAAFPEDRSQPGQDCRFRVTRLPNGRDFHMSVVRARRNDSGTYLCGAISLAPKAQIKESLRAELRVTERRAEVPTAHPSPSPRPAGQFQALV
# Chain of FcRn receptor (recombinant protein human FcRnα and β2-microglobulin) (human) (P55899 24-297 limits assumed, chain 1 of 2): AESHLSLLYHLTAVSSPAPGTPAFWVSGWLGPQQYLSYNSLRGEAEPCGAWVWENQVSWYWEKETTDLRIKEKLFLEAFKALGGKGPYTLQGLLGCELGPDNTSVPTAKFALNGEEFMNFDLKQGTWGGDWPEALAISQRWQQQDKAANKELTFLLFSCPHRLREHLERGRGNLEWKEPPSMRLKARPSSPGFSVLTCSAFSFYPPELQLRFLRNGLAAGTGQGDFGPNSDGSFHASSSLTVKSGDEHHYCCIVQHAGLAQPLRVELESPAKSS
# Chain of FcRn receptor (recombinant protein human FcRnα and β2-microglobulin) (human) (P61769 21-119 limits assumed, chain 2 of 2, further chain): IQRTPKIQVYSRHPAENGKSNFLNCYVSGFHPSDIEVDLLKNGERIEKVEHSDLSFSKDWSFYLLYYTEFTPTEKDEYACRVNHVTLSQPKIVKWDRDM
# Chain of hCD32aH (human) (P12318 36-218): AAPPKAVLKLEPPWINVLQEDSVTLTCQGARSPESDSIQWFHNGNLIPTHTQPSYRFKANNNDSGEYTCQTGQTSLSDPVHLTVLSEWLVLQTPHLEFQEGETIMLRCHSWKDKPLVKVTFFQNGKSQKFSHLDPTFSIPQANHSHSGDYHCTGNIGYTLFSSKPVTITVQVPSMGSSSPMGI
# Chain of human CD64 receptor (hFcγRI) (human) (P12314 16-288 limits assumed): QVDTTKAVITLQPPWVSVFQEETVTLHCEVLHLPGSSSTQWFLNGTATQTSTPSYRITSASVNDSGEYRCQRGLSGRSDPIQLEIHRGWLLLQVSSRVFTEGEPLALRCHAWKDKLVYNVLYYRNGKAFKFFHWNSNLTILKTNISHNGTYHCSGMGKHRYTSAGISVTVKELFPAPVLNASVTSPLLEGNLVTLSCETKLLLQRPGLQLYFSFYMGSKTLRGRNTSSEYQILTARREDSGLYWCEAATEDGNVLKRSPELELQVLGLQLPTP
# Chain of murine PD1 antigen (murine) (Q02242 25-167 limits assumed): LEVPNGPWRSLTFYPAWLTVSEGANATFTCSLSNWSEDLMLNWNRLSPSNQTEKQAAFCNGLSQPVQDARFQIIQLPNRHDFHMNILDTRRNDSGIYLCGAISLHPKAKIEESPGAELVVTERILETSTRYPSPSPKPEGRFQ
Substance,OD Ratio variant/IgG1 WT [1],OD Ratio variant/IgG1 WT [2],OD 450 nm at 0.5 µg/ml (hCD32aR (human) [3]),OD 450 nm at 0.2 µg/ml [4],OD Ratio variant/IgG1 WT (hCD16aV (human) [5]),OD 450 nm at 0.5 µg/ml (hCD32aH (human) [6]),OD Ratio variant/IgG1 WT (hCD32aH (human) [7]),OD Ratio variant/IgG1 WT (hCD32aR (human) [8]),OD 450 nm at 0.2 µg/ml [9],OD 450 nm at 0.2 µg/ml [10],OD 450 nm at 0.5 µg/ml (hCD16aV (human) [11]),OD Ratio variant/IgG1 WT [12],OD 450 nm at 0.5 µg/ml (hCD32b (human) [13]),OD 450 nm at 10 µg/ml [14],OD 450 nm at 0.5 µg/ml [15],OD Ratio variant/IgG1 WT (hCD32b (human) [16]),OD Ratio variant/IgG1 WT [17]
IgG1_C6A_74 nivolumab (V259I/N315D/N434Y) (antibody),0.95,0.98,2.43 OD 450 nm,2.87 OD 450 nm,1.31,1.65 OD 450 nm,1.02,0.65,2.28 OD 450 nm,0.235 OD 450 nm,1.07 OD 450 nm,7.47,0.481 OD 450 nm,2.37 OD 450 nm,1.24 OD 450 nm,0.24,1.1
IgG1_C6A_74Del294 nivolumab (V259I/Del294/N315D/N434Y) (antibody),0.96,0.05,0.242 OD 450 nm,2.77 OD 450 nm,0.15,0.0798 OD 450 nm,0.05,0.06,2.29 OD 450 nm,0.31 OD 450 nm,0.121 OD 450 nm,7.27,0.132 OD 450 nm,2.3 OD 450 nm,0.0574 OD 450 nm,0.06,1.06
IgG1_WT nivolumab (from UniProt P01857 1-330) (antibody),–,–,–,–,–,–,–,–,–,–,–,–,–,0.317 OD 450 nm,1.26 OD 450 nm,–,–
IgG1_WT pembrolizumab (from UniProt P01857 1-330) (antibody),–,–,–,–,–,–,–,–,–,–,–,–,–,0.379 OD 450 nm,0.777 OD 450 nm,–,–

# From patent US20190218292A1
